Test [1] deals with T1, human NGF (R&D Systems, 256-GF-100/CF) (human, UniProt P01138 122-241, in the competitive ELISAs biotinylated with EZ-Link NHS-PEG4-Biotin (sites not given); unlabelled when immobilized in the binding ELISA).
T1 construct: Commercial recombinant protein; also called biotinylated human NGF; nerve growth factor
The test is described as follows: human NGF-trkA competitive ELISA, trkA immobilized, biotinylated human NGF; geometric average of two runs. For orientation: An ELISA detects its analyte on a solid surface through an enzyme-linked reagent.

The target in test [2] is T1, human NGF (R&D Systems, 256-GF-100/CF). The test is described as follows: human NGF-trkA competitive ELISA, IC50 after against before incubation.
For test [3] the target is unchanged. The test is described as follows: human NGF-trkA competitive ELISA after incubation of the antibody 14 days at pH 6 and 50 C; geometric average of two runs.
The target is the same in test [4]. The test is described as follows: human NGF-trkA competitive ELISA; geometric average of three tests.
Test [5] has the same target. The test is described as follows: ELISA, human NGF immobilized, detection with biotinylated anti-human kappa light-chain antibody; geometric average of two runs.

B1: fully human anti-human NGF antibody 1-15 (N52D-A)-Fab' fragment (Fab, V domains shown)
VH: QVQLQQWGAGLLKPSETLSLTCAVYGGSFSGYYWSWVRQPPGKGLEWIGEIDHSGSTNNNPSLKSRVTISVGTSKNQFSLKLSSVTAADTAVYYCSRDGGPESGMGAFDIWGQGTMVTVSS
VL: not shown
Usually IC50 stands for the midpoint of a concentration-inhibition curve. Higher therefore signals weaker potency. B1: the IC50 was found to be 0.3 µg/mL in test [1] and 0.47 µg/mL in test [3]. In addition, the “increase rate of the IC50 value after incubation for 14 days at 50 C relative to that before the incubation” value in test [2] stood at 59%.

B2: Tanezumab (antibody, V domains shown)
VH: QVQLQESGPGLVKPSETLSLTCTVSGFSLIGYDLNWIRQPPGKGLEWIGIIWGDGTTDYNSAVKSRVTISKDTSKNQFSLKLSSVTAADTAVYYCARGGYWYATSYYFDYWGQGTLVTVSS
VL: DIQMTQSPSSLSASVGDRVTITCRASQSISNNLNWYQQKPGKAPKLLIYYTSRFHSGVPSRFSGSGSGTDFTFTISSLQPEDIATYYCQQEHTLPYTFGQGTKLEIKR
Broadly, the EC50 is the concentration needed to bring the measured effect to its halfway point. As to B2, the half-maximal inhibitory concentration (IC50) in test [4] is 0.86 µg/mL. The molecule further had an EC50 in test [5] of 0.146 µg/mL.
